Substrate in data set [1]: O=C(O)C(=O)C[C@H](O)CO
Put plainly: purified protein. The data set is classed as biochemical, Caulobacter vibrioides. The conditions noted are these: 100 mM HEPES/NaOH pH 7.5, 37 °C, 5 mM NAD+.

Substrate in data set [2]: NC(=O)c1ccc[n+]([C@@H]2O[C@H](COP(=O)(O)OP(=O)(O)OC[C@H]3O[C@@H](n4cnc5c(N)ncnc54)[C@H](O)[C@@H]3O)[C@@H](O)[C@H]2O)c1
Put plainly: purified protein. The class given is biochemical, Caulobacter vibrioides. Particulars: 100 mM HEPES/NaOH pH 7.5, 37 °C, varied: cofactor.

Substrate in data set [3]: NC(=O)c1ccc[n+]([C@@H]2O[C@H](COP(=O)(O)OP(=O)(O)OC[C@H]3O[C@@H](n4cnc5c(N)ncnc54)[C@H](O)[C@@H]3O)[C@@H](O)[C@H]2O)c1
Put plainly: purified protein, by the assay type. The arrangement: initial rate kinetics of purified recombinant enzyme, classical Michaelis-Menten fit. The text has this: The five genes of the D-xylose operon, i.e., CCNA_00862–00866, were amplified by PCR using gene-specific primers (Supplementary Table 1) and the genomic DNA of C. crescentus NA1000 as template. The PCR products were cloned into pET (Novagen) expression vectors (Supplementary Table 1) and successful cloning was confirmed by sequencing (LGC genomics, Berlin). For expression, the respective plasmids were transformed into the E. coli BL21-pRIL (DE3) or Rosetta (DE3, Stratagene) (Supplementary Table 1). Overexpression was performed in LB medium containing the appropriate antibiotic. The cells were grown at 37 °C to an OD600 of 0.6–0.7 and induced with 1 mM isopropyl-β-D-thiogalactopyranoside. After induction, the cultures were further incubated at 37 °C for 4 h or at 30 °C or at 21 °C for 18–22 h (Supplementary Table 1), respectively. Cells were collected by centrifugation (15 min, 8630 × g, 4 °C) and the pellets were stored at −70 °C. Due to the choice of the vectors, all of the C. crescentus enzymes were N-terminally histidine tagged. The recombinant L-isoleucine dioxygenase from B. thuringiensis (BtDO) contained a C-terminal 6× histidine tag[47]. […] For XLA and KDXD, the inhibition constants for D-xylonate and KGSA, respectively, had to be fitted based on the conversion data, as these enzymes are analysed in coupled enzyme assays. […]

Substrate in data set [4]: O=C1O[C@H](CO)[C@H](O)[C@H]1O
The data set is described as follows: purified protein. The data set is classed as biochemical, Caulobacter vibrioides. Particulars: 100 mM HEPES/NaOH pH 7.5, 37 °C, 5 mM NAD+.

Substrate in data set [5]: NC(=O)c1ccc[n+]([C@@H]2O[C@H](COP(=O)(O)OP(=O)(O)OC[C@H]3O[C@@H](n4cnc5c(N)ncnc54)[C@H](OP(=O)(O)O)[C@@H]3O)[C@@H](O)[C@H]2O)c1
The data set is described as follows: purified protein. The class given is biochemical, Caulobacter vibrioides. The conditions noted are these: 100 mM HEPES/NaOH pH 7.5, 37 °C, varied: cofactor.

Substrate in data set [6]: O=CCCC(=O)C(=O)O
The data set is described as follows: purified protein. The class given is biochemical, Caulobacter vibrioides. The conditions noted are these: 100 mM HEPES/NaOH pH 7.5, 37 °C, co-substrate NAD+.

Substrate in data set [7]: O=CCCC(=O)O
The data set is described as follows: purified protein. The data set is classed as biochemical, Caulobacter vibrioides. Particulars: 100 mM HEPES/NaOH pH 7.5, 37 °C, NAD(P)+.

Substrate in data set [8]: O=CCCCC=O
The data set is described as follows: purified protein. The class given is biochemical, Caulobacter vibrioides. Particulars: 100 mM HEPES/NaOH pH 7.5, 37 °C, NAD(P)+.

B1: 2-Keto-3-deoxy-D-xylonate dehydratase (KDXD) (Caulobacter vibrioides NA1000) (protein)
chain: MGVSEFLPEDWKAATLLGRIDFGEGPTPVLVRGGRVEDVSKIAPTVADLMNAFQPGAVIPRGEDKGPLEALDIRPVWEDPDGAAPVKLLAPVDLQCLKAAGVTFAVSTLERVIEERARGDAGEALKIRTLLAERMGGDLKSVEPGSQGAQRLKDALIADGLWSQYLEVAIGPDAEIFTKGPTLSSMGWGDQVGVRYDSHWNNPEPEVVLLCDGSGLIRGAALGNDVNLRDFEGRSALLLSKAKDNNASCAIGPFFRLFDETFGLDDVRSAEVELKITGRDNFVLDGKSNMSLISRDPAVLAGQAYGKQHQYPDGFALFLGTMFAPIQDRDTPGQGFTHKVGDRVRVSTPKLGVLENEVTTCDKAKPWTFGISALIRNLAGRGLL
notes: full-length gene in pET vector, N-terminal His tag, E. coli expression, Ni-TED and size exclusion
The Km is the substrate concentration at which the rate is half of its maximum. For orientation: Vmax means the rate approached at saturating substrate. Usually kcat stands for the maximal rate divided by the concentration of active sites. What is called kcat/Km is the second-order rate constant that governs catalysis at low substrate concentration. As for B1, in the data set “purified protein [1]”, the Km was 210 µM, the Vmax was determined as 107 µmol/min/mg, the kcat was 74 s⁻¹ and the kcat/Km is 352000 M⁻¹ s⁻¹.

B2: D-xylose dehydrogenase (XDH) (Caulobacter vibrioides NA1000) (protein)
chain: MSSAIYPSLKGKRVVITGGGSGIGAGLTAGFARQGAEVIFLDIADEDSRALEAELAGSPIPPVYKRCDLMNLEAIKAVFAEIGDVDVLVNNAGNDDRHKLADVTGAYWDERINVNLRHMLFCTQAVAPGMKKRGGGAVINFGSISWHLGLEDLVLYETAKAGIEGMTRALARELGPDDIRVTCVVPGNVKTKRQEKWYTPEGEAQIVAAQCLKGRIVPENVAALVLFLASDDASLCTGHEYWIDAGWR
notes: as for B1
Regarding B2, in “purified protein [2]” (co-substrate D-xylose), the Km came out at 160 µM, the Vmax worked out at 120 µmol/min/mg, the kcat is 57 s⁻¹ and the kcat/Km is 356000 M⁻¹ s⁻¹. The Michaelis-Menten constant (Km) in data set [3] is 170 µM.

B3: Xylonolactonase (XLA) (Caulobacter vibrioides NA1000) (protein)
chain: MTAQVTCVWDLKATLGEGPIWHGDTLWFVDIKQRKIHNYHPATGERFSFDAPDQVTFLAPIVGATGFVVGLKTGIHRFHPATGFSLLLEVEDAALNNRPNDATVDAQGRLWFGTMHDGEENNSGSLYRMDLTGVARMDRDICITNGPCVSPDGKTFYHTDTLEKTIYAFDLAEDGLLSNKRVFVQFALGDDVYPDGSVVDSEGYLWTALWGGFGAVRFSPQGDAVTRIELPAPNVTKPCFGGPDLKTLYFTTARKGLSDETLAQYPLAGGVFAVPVDVAGQPQHEVRLV
notes: as for B1
Regarding B3, in “purified protein [4]”, the Michaelis-Menten constant (Km) came out at 450 µM, the Vmax amounted to 944 µmol/min/mg, the kcat came out at 497 s⁻¹ and the kcat/Km came to 1.1e+06 M⁻¹ s⁻¹.

B4: α-Ketoglutarate semialdehyde dehydrogenase (KGSADH) (Caulobacter vibrioides NA1000) (protein)
chain: MTDTLRHYIGGERVAADAPAESLNPSNTNDVVAKVPMGGQAEVDAAVDAARKAFPAWADASPEVRSDLLDKVGSTIIARSADIGRLLAREEGKTLAEGIGETVRAGRIFKYFAGEALRRHGQNLESTRPGVEIQTYRQAVGVYGLITPWNFPIAIPAWKAAPALAFGNTVVIKPAGPTPATANVLADIMAECGAPAGVFNMLFGRGSMGDALIKHKDVDGVSFTGSQGVGAQVAAAAVARQARVQLEMGGKNPLIVLDDADLERAVAIALDGSFFATGQRCTASSRLIVQDGIHDKFVALLAEKVAALRVGDALDPNTQIGPAVSEDQMETSYRYIDIAASEGGRVVTGGDRIKLDNPGWYVRPTLIADTQAGMRINNEEVFGPVASTIRVKSYEEALEIANGVEFGLSAGIATTSLKHARHFQRYARAGMTMVNLATAGVDYHVPFGGTKSSSYGAREQGFAAVEFFTQTKTSYSWS
notes: as for B1
Regarding B4, the Michaelis constant (Km) was 600 µM in the data set “purified protein [2]” (co-substrate KGSA); 20 µM in “purified protein [5]”; 20 µM in “purified protein [6]”; 400 µM in the data set “purified protein [7]”; 2510 µM in the data set “purified protein [8]”. The maximal velocity (Vmax) in the data set “purified protein [2]” (co-substrate KGSA) and in the data set “purified protein [6]” was 49 µmol/min/mg each time. Also, the kcat in “purified protein [2]” (co-substrate KGSA) and in “purified protein [6]” was 41 s⁻¹ each time. Besides, the specificity constant (kcat/Km) in “purified protein [2]” (co-substrate KGSA) was determined as 68000 M⁻¹ s⁻¹; in the data set “purified protein [6]”, 2.05e+06 M⁻¹ s⁻¹.

Source of the values: PMC7046635, “A combined experimental and modelling approach for the Weimberg pathway optimisation” (Nature Communications, 2020).
